Results published in the Human Domainome abundance scans (Beltran et al. 2025).

B1: Membrane-associated guanylate kinase, WW and PDZ domain-containing protein 1, residues 352 to 401; numbered along this chain, Q96QZ7 (parent)
chain: TEELDSELELPAGWEKIEDPVYGIYYVDHINRKTQYENPVLEAKRKKQLE

Variants of: B1
Assay: abundance fitness (aPCA) (normalised: wild type 0, dead -1); higher = more abundant; growth selection in yeast, the domain comes from the species named
Conditions: Homo sapiens

Abundance fitness: each site, then its substitutions
G23: W -0.8
A43: L -0.012; C -0.246; I -0.092; F -0.357; G -0.137; D 0.003; E -0.011; K -0.236; H -0.161
E42: A -0.225; K -0.505; Y -0.366; H -0.599; L -0.231; C -0.297; F -0.535; R -0.565; W -0.26; D -0.192; Q -0.222; V -0.149; P -0.361; T -0.086; I -0.117; G -0.137; N -0.285
R32: I -0.387; V -0.333; W -0.519; S -0.119; G -0.013; D 0.067; K -0.061; C -0.168; P -0.564; F -0.431; E 0.002; H 0.125; L -0.119; A -0.249; T -0.607
Y26: T -0.457; N -0.54; V -0.668; A -0.321; R -0.549; S -0.337; L -0.741; I -0.982; W -0.257; F -0.137; E -0.213; K -0.563; Q -0.385; M -0.552; P -0.404; G -0.395
N31: T -0.134; E -0.396; V -0.756; F -0.784; I -0.802; S -0.135; K -0.265; Q -0.388; Y -0.671; A -0.188; R -0.201; P -0.663; L -0.325; D -0.28; C -0.123; G 0.009; M -0.444; W -0.843; H -0.069
H29: K -0.157; N -0.01; V -0.207; D -0.535; P -0.515; E -0.354; T 0.016; M -0.386; G -0.317; Q -0.465; A -0.229; F -0.682; R -0.217; W -0.439; C -0.502; S -0.26; L -0.156
N38: P -0.481; I -0.61; Q -0.387; K -0.444; H 0.171; W -0.138; M -0.116; L -0.271; R -0.079; Y -0.365; E -0.254; C -0.747; F -0.058; S -0.066; D -0.158; G -0.45; A -0.146; T -0.341
I24: C -0.22; H -0.64; D -0.387; Y -0.569; V -0.066; R -0.203; Q -0.225; L -0.223; W -0.344; F 0.015; A -0.323; E 0.067; S -0.144; P -0.057; K -0.238; G -0.208; T 0.039
Y36: R 0.059; W -0.093; P -0.161; M 0.096; T -0.041; K -0.058; F -0.308; N -0.176; A -0.102; Q -0.134; L -0.048; C -0.463; I -0.185; D -0.32; H -0.093; S -0.086; V -0.11; E -0.172
Y25: N -0.447; S -0.119; Q -0.14; G -0.299; C -0.251; K 0.007; A -0.278; M -0.033; V -0.079; H -0.192; P -0.367; L -0.593; I -0.053; T -0.266; D -0.333; W -0.361; E -0.26; F -0.148
V27: T -0.26; E -0.229; G -0.378; W -0.242; K 0.044; I -0.178; H -0.307; M 0.038; D 0.071; P -0.394; N -0.34; A -0.096; C -0.055; Q -0.227; R -0.069; L -0.073
T34: C 0.042; A -0.413; H -0.407; Q -0.182; F -0.387; S -0.11; L -0.603; E -0.316; V -0.232; K -0.219; G -0.453; N -0.237; M -0.265; I -0.502; W -0.193; D -0.414; R -0.035; Y -0.324
V40: A 0.068; P -0.404; K -0.055; I -0.197; Y -0.237; S -0.026; W -0.177; L -0.016; E -0.25; M -0.033; G -0.047; R -0.099; N -0.038; T 0.006; F -0.385; Q -0.385
Q35: W -0.48; D -0.597; M -0.18; G -0.487; E -0.373; T 0.009; V -0.188; H -0.588; C -0.338; N -0.516; R -0.334; Y -0.15; I -0.571; A -0.26; F -0.68; L -0.423
L41: F 0.064; G -0.094; E -0.053; C -0.116; W -0.114; P -0.128; S -0.011; M 0.03; A 0.038; N -0.137; Q 0.001; V 0.001; H 0.032; R -0.039; T -0.058; K -0.035; Y -0.021; I -0.324
I30: S -0.279; C -0.322; P -0.208; K -0.078; N -0.397; F -0.195; A -0.093; R -0.128; W -0.431; Y -0.086; D -0.459; V -0.064; E -0.079; G -0.203; L -0.082; T -0.256; Q -0.215; M -0.311
E37: A -0.192; F -0.438; R -0.401; L -0.213; T -0.177; H -0.321; N -0.005; W -0.47; V -0.286; M -0.296; P -0.56; G -0.213; S -0.162; D -0.151; K -0.282; Q -0.176; C -0.292; Y -0.611
P39: V -0.699; F -1; S -0.597; G -0.393; M -0.714; K -0.857; R -0.648; I -1.04; W -0.894; C -0.817; D -0.314; Y -1.21; Q -0.447; A -0.379; H -1.3; L -0.615; E -0.466
D28: G -1.07; E -0.696; V -1.24; F -1.12; C -1; N -0.303; M -1.14; A -1.16; K -0.764; Y -0.861; Q -0.934; P -0.855; H -0.634; R -1.09
K33: F -0.52; L -0.028; M -0.236; P -0.815; S -0.222; A -0.057; I -0.291; V -0.028; D -0.066; W -0.347; H -0.463; C -0.074; Y -0.331; T -0.158; G -0.414; N -0.169; E -0.488; Q -0.034
